Results: paper PMC9482650, “Quantitative fragmentomics allow affinity mapping of interactomes” (Nature Communications, 2022)
Residue numbers refer to the chain shown, from its start.

T1: APBA1_1, Q02410
T1 sequence (Q02410 651-752, limits assumed, looked up): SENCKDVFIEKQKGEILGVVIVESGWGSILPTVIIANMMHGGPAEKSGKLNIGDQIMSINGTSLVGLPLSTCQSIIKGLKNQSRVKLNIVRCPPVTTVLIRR

T2: APBA1_2, Q02410
T2 sequence (Q02410 742-832, limits assumed, looked up): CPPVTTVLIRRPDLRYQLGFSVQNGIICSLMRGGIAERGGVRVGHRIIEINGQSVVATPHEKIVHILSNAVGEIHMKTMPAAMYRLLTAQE

T3: APBA2_1, Q99767
T3 sequence (Q99767 563-664, limits assumed, looked up): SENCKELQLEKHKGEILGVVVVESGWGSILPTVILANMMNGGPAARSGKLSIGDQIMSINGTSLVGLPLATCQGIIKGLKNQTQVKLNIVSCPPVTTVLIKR

T4: APBA2_2, Q99767
T4 sequence (Q99767 654-744, limits assumed, looked up): T2 sequence (Q02410 742-832, limits assumed, looked up) with R10K, R15K, P59A, H65Q, I66A, A70S, Y84F, A89G

T5: DVL3, Q92997
T5 sequence (Q92997 244-331, limits assumed, looked up): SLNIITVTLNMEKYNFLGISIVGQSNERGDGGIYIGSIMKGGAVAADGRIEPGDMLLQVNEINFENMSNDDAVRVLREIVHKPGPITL

T6: GRIP1_4, Q9Y3R0
T6 sequence (Q9Y3R0 467-571, limits assumed, looked up): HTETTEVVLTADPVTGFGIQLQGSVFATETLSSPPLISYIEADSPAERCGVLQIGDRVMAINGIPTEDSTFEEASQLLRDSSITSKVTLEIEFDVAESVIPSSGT

T7: HTRA3, P83110
T7 sequence (P83110 354-453, limits assumed, looked up): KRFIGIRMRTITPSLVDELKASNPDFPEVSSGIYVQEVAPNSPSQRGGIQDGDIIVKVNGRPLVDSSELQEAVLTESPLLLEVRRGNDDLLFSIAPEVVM

T8: LIN7C, Q9NUP9
T8 sequence (Q9NUP9 88-185, limits assumed, looked up): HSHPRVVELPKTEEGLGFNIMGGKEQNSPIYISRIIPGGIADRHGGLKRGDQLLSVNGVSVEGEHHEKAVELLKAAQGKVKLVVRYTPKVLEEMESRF

T9: LNX2_2, Q8N448
T9 sequence (Q8N448 334-432, limits assumed, looked up): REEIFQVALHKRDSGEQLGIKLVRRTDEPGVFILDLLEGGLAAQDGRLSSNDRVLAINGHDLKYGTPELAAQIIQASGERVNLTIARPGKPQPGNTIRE

T10: LNX2_3, Q8N448
T10 sequence (Q8N448 463-564, limits assumed, looked up): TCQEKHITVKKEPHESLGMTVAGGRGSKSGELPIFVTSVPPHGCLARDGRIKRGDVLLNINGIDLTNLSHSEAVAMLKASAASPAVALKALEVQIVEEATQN

T11: MPDZ_10, O75970
T11 sequence (O75970 1624-1722, limits assumed, looked up): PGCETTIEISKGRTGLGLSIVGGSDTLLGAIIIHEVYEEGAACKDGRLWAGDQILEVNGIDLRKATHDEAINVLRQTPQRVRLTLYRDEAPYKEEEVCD

T12: NHERF3_3, Q5T2W1
T12 sequence (Q5T2W1 238-333, limits assumed, looked up): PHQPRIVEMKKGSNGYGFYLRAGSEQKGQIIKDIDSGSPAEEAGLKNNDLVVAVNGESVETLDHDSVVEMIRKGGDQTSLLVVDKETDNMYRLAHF

T13: SNTA1, Q13424
T13 sequence (Q13424 82-180, limits assumed, looked up): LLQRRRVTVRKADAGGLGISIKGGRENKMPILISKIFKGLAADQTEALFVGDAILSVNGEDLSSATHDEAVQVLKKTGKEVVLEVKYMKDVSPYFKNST


Experiments:
Assay in all cases: holdup assay
Set-up in all cases: key: below the threshold = too weak to quantify, mostly under pKd 3.1 to 4
Conditions in all cases: plain residues with an end cap or a label only (N-terminal biotin on a linker: ado-ado)
[1] = target: T1, APBA1_1, Q02410
[2] = target: T2, APBA1_2, Q02410
[3] = target: T3, APBA2_1, Q99767
[4] = target: T4, APBA2_2, Q99767
[5] = target: DLG4_1, P78352
[6] = target: T5, DVL3, Q92997
[7] = target: FRMPD2_3, Q68DX3
[8] = target: GRID2IP_1, A4D2P6
[9] = target: T6, GRIP1_4, Q9Y3R0
[10] = target: GRIP2_4, Q9C0E4
[11] = target: T7, HTRA3, P83110
[12] = target: Inadl_4, Q8NI35
[13] = target: T8, LIN7C, Q9NUP9
[14] = target: LNX1_2, Q8TBB1
[15] = target: LNX1_3, Q8TBB1
[16] = target: T9, LNX2_2, Q8N448
[17] = target: T10, LNX2_3, Q8N448
[18] = target: MAGI2_2, Q86UL8
[19] = target: T11, MPDZ_10, O75970
[20] = target: T12, NHERF3_3, Q5T2W1
[21] = target: NHERF4_2, Q86UT5
[22] = target: NHERF4_4, Q86UT5
[23] = target: PDLIM1, O00151
[24] = target: SCRIB_1, Q14160
[25] = target: T13, SNTA1, Q13424

Chain of GRIP2_4, Q9C0E4 (Q9C0E4 446-548): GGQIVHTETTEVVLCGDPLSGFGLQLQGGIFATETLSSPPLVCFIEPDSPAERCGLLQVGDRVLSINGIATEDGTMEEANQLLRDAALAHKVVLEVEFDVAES
Chain of LNX1_3, Q8TBB1 (Q8TBB1 500-596): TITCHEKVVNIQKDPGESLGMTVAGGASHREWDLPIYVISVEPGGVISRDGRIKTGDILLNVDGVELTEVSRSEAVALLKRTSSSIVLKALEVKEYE
Chain of DLG4_1, P78352 (P78352 62-152): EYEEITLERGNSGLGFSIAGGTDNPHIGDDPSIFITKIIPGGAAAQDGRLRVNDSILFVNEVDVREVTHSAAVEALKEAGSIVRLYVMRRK
Chain of PDLIM1, O00151 (O00151 1-87): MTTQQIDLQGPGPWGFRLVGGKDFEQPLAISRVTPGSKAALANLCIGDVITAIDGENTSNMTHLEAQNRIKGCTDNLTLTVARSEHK
Chain of GRID2IP_1, A4D2P6 (A4D2P6 1-87): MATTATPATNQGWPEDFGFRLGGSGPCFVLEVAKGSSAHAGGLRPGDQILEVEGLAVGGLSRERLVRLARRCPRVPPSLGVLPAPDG
Chain of LNX1_2, Q8TBB1 (Q8TBB1 371-470): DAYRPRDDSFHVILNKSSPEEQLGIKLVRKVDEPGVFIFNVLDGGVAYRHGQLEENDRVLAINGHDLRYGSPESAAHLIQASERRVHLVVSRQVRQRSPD
Chain of FRMPD2_3, Q68DX3 (Q68DX3 1073-1166): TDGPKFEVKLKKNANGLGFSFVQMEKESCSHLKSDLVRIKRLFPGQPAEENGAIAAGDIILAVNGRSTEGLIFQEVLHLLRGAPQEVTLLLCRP
Chain of NHERF4_2, Q86UT5 (Q86UT5 220-308): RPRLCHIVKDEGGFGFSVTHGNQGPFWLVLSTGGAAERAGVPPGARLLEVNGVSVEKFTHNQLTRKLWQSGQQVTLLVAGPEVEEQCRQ
Chain of SCRIB_1, Q14160 (Q14160 718-814): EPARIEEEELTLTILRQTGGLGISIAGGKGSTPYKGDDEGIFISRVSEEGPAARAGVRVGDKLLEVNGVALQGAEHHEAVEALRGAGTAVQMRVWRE
Chain of MAGI2_2, Q86UL8 (Q86UL8 410-522): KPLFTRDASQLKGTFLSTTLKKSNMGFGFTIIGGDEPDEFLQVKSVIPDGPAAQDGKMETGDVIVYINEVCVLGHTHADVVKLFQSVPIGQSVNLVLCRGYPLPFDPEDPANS
Chain of Inadl_4, Q8NI35 (Q8NI35 547-651): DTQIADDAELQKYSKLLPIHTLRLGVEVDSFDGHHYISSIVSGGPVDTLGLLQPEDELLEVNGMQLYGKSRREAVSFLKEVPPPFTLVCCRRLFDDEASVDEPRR
Chain of NHERF4_4, Q86UT5 (Q86UT5 464-550): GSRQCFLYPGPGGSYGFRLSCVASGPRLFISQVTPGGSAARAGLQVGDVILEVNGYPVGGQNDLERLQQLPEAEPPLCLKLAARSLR

| Binder | pKd [1] | pKd [2] | pKd [3] | pKd [4] | pKd [5] | pKd [6] | pKd [7] | pKd [8] | pKd [9] | pKd [10] | pKd [11] | pKd [12] | pKd [13] | pKd [14] | pKd [15] | pKd [16] | pKd [17] | pKd [18] | pKd [19] | pKd [20] | other results |
| --- | --- | --- | --- | --- | --- | --- | --- | --- | --- | --- | --- | --- | --- | --- | --- | --- | --- | --- | --- | --- | --- |
| EGGKKRESEA [APPL1, Q9UKG1] | below the threshold | below the threshold | below the threshold | below the threshold | below the threshold | below the threshold | below the threshold | below the threshold | below the threshold | below the threshold | below the threshold | below the threshold | below the threshold | below the threshold | below the threshold | below the threshold | below the threshold | below the threshold | below the threshold | below the threshold | pKd [21]: below the threshold; pKd [22]: below the threshold; pKd [23]: below the threshold; pKd [24]: below the threshold; pKd [25]: below the threshold |
| SSGSTSSSRI [ADGRG1, Q9Y653] | below the threshold | below the threshold | below the threshold | below the threshold | below the threshold | below the threshold | below the threshold | below the threshold | below the threshold | below the threshold | below the threshold | below the threshold | below the threshold | below the threshold | below the threshold | below the threshold | below the threshold | below the threshold | below the threshold | below the threshold | pKd [21]: below the threshold; pKd [22]: below the threshold; pKd [23]: below the threshold; pKd [24]: below the threshold; pKd [25]: below the threshold |

Further lines, with some results ahead:

| pKd [1] | pKd [2] | pKd [3] | pKd [4] | pKd [5] | pKd [6] | pKd [7] | pKd [8] | pKd [9] | pKd [10] | pKd [11] | pKd [12] | pKd [13] | pKd [14] | pKd [15] | pKd [16] | pKd [17] | pKd [18] | pKd [19] | pKd [20] | Binder | other results |
| --- | --- | --- | --- | --- | --- | --- | --- | --- | --- | --- | --- | --- | --- | --- | --- | --- | --- | --- | --- | --- | --- |
| 3.52 | below the threshold | 3.58 | 3.48 | below the threshold | below the threshold | below the threshold | below the threshold | below the threshold | 3.49 | below the threshold | below the threshold | below the threshold | below the threshold | 3.66 | below the threshold | below the threshold | below the threshold | below the threshold | below the threshold | QLAEIAESGL [ITK, Q08881] | pKd [21]: 3.57; pKd [22]: below the threshold; pKd [23]: 3.56; pKd [24]: 3.75; pKd [25]: 3.63 |
| below the threshold | 4.08 | below the threshold | below the threshold | 5.16 | below the threshold | 3.61 | below the threshold | below the threshold | below the threshold | below the threshold | below the threshold | 3.81 | 3.96 | below the threshold | 5.21 | below the threshold | 4.73 | below the threshold | below the threshold | PKLMGVETVV [DUSP10, Q9Y6W6] | pKd [21]: below the threshold; pKd [22]: below the threshold; pKd [23]: below the threshold; pKd [24]: 4.28; pKd [25]: 5.13 |
| below the threshold | below the threshold | below the threshold | below the threshold | below the threshold | below the threshold | below the threshold | below the threshold | below the threshold | below the threshold | below the threshold | below the threshold | below the threshold | below the threshold | below the threshold | below the threshold | below the threshold | 3.67 | below the threshold | below the threshold | PEEGKKQSQC [GAGE12J, A6NER3] | pKd [21]: below the threshold; pKd [22]: below the threshold; pKd [23]: below the threshold; pKd [24]: below the threshold; pKd [25]: below the threshold |
